According to paper PMC8623652:

Columns and labels:
[1] = target: Neuronal calcium sensor-1 (NCS-1), recombinant, myristoylated, reduced monomer (UniProt P62166); assay: SEC; analytical gel filtration on Superdex 75 10/300 GL, 20 mM Tris-HCl pH 8.0, 150 mM NaCl, 1 mM DTT (non-oxidizing), with 0.1 mM ZnCl2 or 1 mM EGTA
[2] = target: Neuronal calcium sensor-1 (NCS-1), recombinant, myristoylated, reduced monomer (UniProt P62166); assay: SDS-PAGE under non-reducing conditions (disulfide dimer); 20 μM reduced NCS-1 with 0.1–1000 μM H2O2, 20 mM Tris-HCl pH 8.0, 150 mM NaCl, with 1 mM MgCl2, 1 mM CaCl2, 0.1 mM ZnCl2 or their combinations (1% SDS in controls), 37 °C, 30 min; densitometry
[3] = target: Chimera GRK1^N-C, fusion protein containing regulatory domains of GRK1 (GRK1 1-191,512-557) (UniProt P28327); assay: SPR; GRK1^N-C immobilised by amine coupling on a ProteOn GLH chip (up to 12,000 RU); analyte NCS-1 or dNCS-1 0.5 to 20 μM; 25 °C; 10 mM HEPES pH 7.4, 150 mM NaCl, 1 mM CaCl2, 0.05% Tween 20; global fits by the heterogeneous ligand model (both) or the bivalent analyte model (dNCS-1)
[4] = target: Neuronal calcium sensor-1 (NCS-1), recombinant, myristoylated, reduced monomer (UniProt P62166); assay: SDS-PAGE under non-reducing conditions (disulfide dimer); preparation of dNCS-1: NCS-1 2 mg/mL dialysed against 20 mM Tris-HCl pH 8.0, 150 mM NaCl, 1 mM H2O2, 4 °C, 3 h
[5] = target: Neuronal calcium sensor-1 (NCS-1), recombinant, myristoylated, reduced monomer (UniProt P62166); assay: redox equilibrium with GSSG/GSH, SDS-PAGE under non-reducing conditions; 1.5 µM dNCS-1, 50 mM HEPES pH 7.4, 100 mM KCl, 0.1 mM CaCl2 or 1 mM MgCl2, 0.1 mM GSSG and 8.8 µM–72.4 mM GSH, anaerobic, 35 °C, 62 h; densitometry
[6] = target: NCS-1 in HEK293 cells transfected with NCS-1-pCI-neo (UniProt P62166); assay: Western blotting of cell lysates under non-reducing conditions (disulfide dimer); HEK293 cells transfected with NCS-1, 10 mM H2O2 for 30 min or longer, with or without Ca2+/ionomycin, EGTA, or Zn2+ with chloroquine; lysis with 10 mM iodoacetamide; dimer fraction by densitometry

UniProt P28327, sequence (P28327 other isoform, or with tags, fused parts or gaps mutant): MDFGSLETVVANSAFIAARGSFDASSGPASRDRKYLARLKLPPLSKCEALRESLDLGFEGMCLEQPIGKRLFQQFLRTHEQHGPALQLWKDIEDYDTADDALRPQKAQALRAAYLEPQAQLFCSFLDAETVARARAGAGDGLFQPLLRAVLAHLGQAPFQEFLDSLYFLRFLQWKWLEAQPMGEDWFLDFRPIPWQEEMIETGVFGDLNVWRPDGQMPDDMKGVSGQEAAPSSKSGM

Row | stoichiometry N [1] | dimer content (Zn2+-bound NCS-1, H2O2) [2] | dimer fraction of total protein (the forms of Figure 4B, H2O2) [2] | stoichiometry N [2] | KD 1 (heterogeneous ligand model) [3] | KD 2 (heterogeneous ligand model) [3] | koff 1 (heterogeneous ligand model) [3] | koff 2 (heterogeneous ligand model) [3] | kon 1 (heterogeneous ligand model) [3] | kon 2 (heterogeneous ligand model) [3] | dNCS-1 in the dialysis mixture (1 mM H2O2) [4] | dNCS-1 of total NCS-1 (Ca2+, Eh GSSG/GSH ~ −220 mV) [5] | dimer content (prolonged incubation with Zn2+/H2O2) [6] | fraction of dNCS-1 of total protein (H2O2 after Zn2+ with chloroquine) [6] | fraction of the dimer of total NCS-1 (10 mM H2O2, 30 min) [6] | stoichiometry N [6] | Substance
1 | 2 | 75% | < 30% | 2 | 590 nM | 2700 nM | 0.00016 s⁻¹ | 0.0044 s⁻¹ | 267 M⁻¹ s⁻¹ | 1910 M⁻¹ s⁻¹ | 80% | 5 to 10% | – | – | – | – | Neuronal calcium sensor-1 (NCS-1), recombinant, myristoylated, reduced monomer (from UniProt P62166 1-190) (natural protein)
2 | – | – | – | – | – | – | – | – | – | – | – | – | 25 to 30% | 9% | 4 to 5% | 2 | NCS-1 in HEK293 cells transfected with NCS-1-pCI-neo (from UniProt P62166 1-190) (natural protein)
